Measured values as given in patent US8445655, “Functional nucleic acid ligands to fluorescent proteins” (Cornell Research Foundation, Inc.).

B1: AP2 (ssRNA)
RNA: GGGAGCACGAUUCCAUGCAAUUGUCGAGUUGUUAGCAGCAGCUUGCAUAUUGAGUCGUGGCGAAUUGGGUGGGGAAAGUCCUAAAAAGAGGGCCACCACAGAGGUUUGUACCCAUACUACAAGCUUCUGGACUCGGU
B2: AP4 (ssRNA)
RNA: GGGAGCACGAUUCCAUGAUUCUCGUAUCAAGGAAGGGUUAUGAGAUUUAGGUAAACGUGGCGAAUUGGGUGGGGAAAGUCCUAAAAAGAGGGCCACCACAGAGGCUUGUAAUCGAUGUUACUAUAGAGGGACACGACUACAAGCUUCUGGACUCGGU
B3: AP6 (ssRNA)
RNA: GGGAGCACGAUUCCAUUGGAUGCCACCGCGACUACGGUUAGUAGGCAUUCUGAGUCGUGGCGAAUUGGGUGGGGAAAGUCCUGAAAAGAGGGCCACCACAGAGGCUCAAACUGGACGUUAAUGACGUUUCGGUUCAGUACAAGCUUCUGGACUCGGU

Target: GFP (wild-type green fluorescent protein) (Aequorea victoria, UniProt P42212 P42212:1-238)
Assay: filter; higher affinity than G16
Conditions: tags: His-tag (His-tagged GFP used on Ni beads in selection)

Row | Binder | binding result
1 | B1 | binds
2 | B2 | binds
3 | B3 | binds
